Each sequence was assayed on MS2 coat protein (assay: apparent KD of MS2 coat protein, switch OFF state (with FMN for OFF switches, without FMN for ON switches); designed switch direction (-1 OFF switch, 1 ON switch): -1; higher = weaker reporter binding). Settings: FMN input: 0 or 200 uM; Eterna round: R93 (includes R88 designs).
Summary of the method: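 Apparent KD per design is the median of normalised cluster binding-curve fits. Designed RNA switches transcribed on-chip from Illumina sequencing clusters were titrated with SNAP-549-labelled MS2 coat protein in twofold steps from 0.7 or 1.5 nM to 3 µM, with 0.8–1.5 h down to 10–20 min per step. Buffer: 100 mM Tris-HCl pH 7.5, 80 mM KCl, 4 mM MgCl2, without or with constant ligand.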
In the case of “AUAAUGCGAGGAUAUACAUGAGGAUCACCCAUGUAAAUCAAUAGGAGAGCCACAUUAAGUAGAAGGUGCAUUAA [JR_Exc003_Sub502]”, the “apparent KD of MS2 coat protein” value is reported as 49.1 nM.
With “AAAGGACGAGGAUAUACAUGAGGAUCACCCAUGUAAAAAACAUAAUAAAAGAACUUAUGUAGAAGGCGUCCAAA [Meechl Ex3 2]” the “apparent KD of MS2 coat protein” value was 318 nM.
“AUAGUACAUGAGGAUCACCCAUGUCAGGAUAUUGGAUAUGAAAAAAAAAAAAAGUUAACGAGAAGGGACUAUAA [EX1 Malc#14]” was tested, and the “apparent KD of MS2 coat protein” value was 33.6 nM.
With “AGUUGGCGAGGAUAUACAUGAGGAUCACCCAUGUAAAAAAAAAAAAAAAAAACUUCAUGUAGAAGGCGCUGACA [Starry Exclusion 3.4 (biggestlegoheroicafanever round 1 mod)]” the “apparent KD of MS2 coat protein” value was 63.1 nM.
With “AAAAAACAUGAGGAUCACCCAUGUAAGGAUAUGCUAAAAAACGCAAAAAAAGCGAAUAGCAGAAGGUACAAAAA [66%, Wbt, 29]” the “apparent KD of MS2 coat protein” value was 35.9 nM.
With “UUAAAACAUGAGGAUCACCCAUGUGAGGAUAUGCAAUACUAAUAUUAAAAUAAUUAUAGCAGAAGGCACAUAGU [JR_EXc001_Sub802]” the “apparent KD of MS2 coat protein” value was 60.4 nM.
In the case of “AAAAAGCGAGGAUAUACGAGUCAAAGAAAAGACAAAAGGGAACAUGAGGAUCACCCAUGUAGAAGGCGCAAAAA [Fiskers exclusion D2 62% 2]”, the “apparent KD of MS2 coat protein” value is reported as 100 nM.
“AAGAAGUGAGGAUAUCGAAGACUGUCGAAAAGACAGUCGAACGAGAAGGCACAUGAGGAUCACCCAUGUGGAAA [Marsurpial 65% 5]” was tested, and the “apparent KD of MS2 coat protein” value was 36.3 nM.
“AAAGGACAAGGAUAUACAUGAGGAUCACCCAUGUGUAAAACAUAAUAAAAUAACUUAUGUAGAAGGUGUCCAAA [Mat - Exclusion 3 - Eli mod - D100]” was tested, and the “apparent KD of MS2 coat protein” value was 173 nM.
For “AAGAAGUCAGGAUAUGCAAAAGAAAAGAAAAGAAAAGAAAAGCAGAAGGGACAUGAGGAUCACCCAUGUAAGAA [Metsuire Cambyses]”, the “apparent KD of MS2 coat protein” value was 40.1 nM.
With “CAGUACUGAGGAUAUACAUGAGGAUCACCCAUGUAAAAAAGCUACGAAAGUAGCAAAUGUAGAAGGCAGUACUG [Ex3: 804]” the “apparent KD of MS2 coat protein” value was 22.8 nM.
For “AAAAAAGCAGGAUAUACGAACAUGUCGAAAGACGUGAAGGGACAUGAGGAUCACCCAUGUAGAAGGGUUAAGAA [Mat - Exclusion 2 - JL mod - D75]”, the “apparent KD of MS2 coat protein” value was 55 nM.
In the case of “AAGAAGAGAGGAUAUACAUAAUAAAAGAAAAGAAACAAAGAACAUGAGGAUCACCCAUGUAGAAGGCUCAAGAA [Khasekhemre Neferhotep I]”, the “apparent KD of MS2 coat protein” value is reported as 51 nM.
In the case of “AACAGUACAGGAUAUACAUGAGGAUCACCCAUGUGAAAAUUAAGUGGAGAACCACAAAGUAGAAGGGUACUGAA [Mat - Exclusion 3 - Eli mod - D57]”, the “apparent KD of MS2 coat protein” value is reported as 179 nM.
For “AGUUGGCGAGGAUAUACAUGAGGAUCACCCAUGUGAAAGAAAAAAGUGAGAAAGAAAAGUAGAAGGCGCUGACA [73%, Moding Norbert Elias, 2]”, the “apparent KD of MS2 coat protein” value was 181 nM.
In the case of “AGCUAGUCAGGAUAUACAAACAUGUCAAAAGACGUGAAGGAACAUGAGGAUCACCCAUGUAGAAGGGACUAGCA [Web Mod 74% 3]”, the “apparent KD of MS2 coat protein” value is reported as 19.5 nM.
In the case of “AAGAAGUAAGGAUAUACAAAAUAAAAGAAAAGAAAGAAAGAACAUGAGGAUCACCCAUGUAGAAGGUACAAGAA [Sankhkare Mentuhotep III]”, the “apparent KD of MS2 coat protein” value is reported as 19.6 nM.
In the case of “GAAAAGUCAGGAUAUGCGAAGGCGUCUGAUAGACGAGGCUAGCAGAAGGGACAUGAGGAUCACCCAUGUGGAAG [Mat - Exclusion 4 - Eli mod - D90]”, the “apparent KD of MS2 coat protein” value is reported as 157 nM.
For “AAAAUGUCAGGAUAUGCGAAGGCGUCUGACGGACGAGGAUUGCAGAAGGGACAUGAGGAUCACCCAUGUAAAAA [Mod Hyphema's Change in Energy -added G at 31]”, the “apparent KD of MS2 coat protein” value was 133 nM.
For “AACAGUACAGGAUAUACAUGAGGAUCACCCAUGUGAGAAUUAAGUGGCGAACCACAAAGUAGAAGGGUACUGAA [Mat - Exclusion 3 - JL mod - D7]”, the “apparent KD of MS2 coat protein” value was 181 nM.
With “UGCUAGUCAGGAUAUACGAACAUGUCAAAAGACGUGAAGGGACAUGAGGAUCACCCAUGUAGAAGGGACUAGCA [salish99-Ex2-18]” the “apparent KD of MS2 coat protein” value was 121 nM.
In the case of “AAGAAUCGAGGAUAUACAUGAGGAUCACCCAUGUAAAAGAAAGAAAAGGGAAAGAAAAGUAGAAGGCGAAAGAA [Userkhaure Setnakht]”, the “apparent KD of MS2 coat protein” value is reported as 35.3 nM.
For “GAAAGUGGAGGAUAUACAUGAGGAUCACCCAUGUGUAAAAAUAAAAACACAAAAGAAAGUAGAAGGCCACAAAG [Mat - Exclusion 3 - Mayanna mod - D116]”, the “apparent KD of MS2 coat protein” value was 49.2 nM.
With “GGUUGCGUAGGAUAUACAUGAGGAUCACCCAUGUGAGAGAAAAAAGUGAGAAAGAAAAGUAGAAGGACGUGACG [salish99-ex3-125]” the “apparent KD of MS2 coat protein” value was 57.9 nM.
For “AAGAAACAUGAGGAUCACCCAUGUGAGGAUAUGAAAAAGAAAAGAAAAGAAAGAAGAAUCAGAAGGCACAAAGG [Nebkaure Khety II]”, the “apparent KD of MS2 coat protein” value was 1850 nM.
With “AAAAAGUGAGGAUAUACAUGAGGAUCACCCAUGUAAAAAAAAAAAAGGGUGGAAGAAAGUAGAAGGCACCAAAA [Ex 3 May 47]” the “apparent KD of MS2 coat protein” value was 75.1 nM.
“GAAAACCUAGGAUAUACAUGAGGAUCACCCAUGUCAGUAGACUGGGUAAGGUCUCUCAGUAGAAGGAGGACCCA [Ratilein]” was tested, and the “apparent KD of MS2 coat protein” value was 318 nM.
In the case of “UGUUGGCGAGGAUAUACAUGAGGAUCACCCAUGUGAGAGAAAAAAGUGAGAAAGAAAAGUAGAAGGCGCUGACU [salish99-ex3-08]”, the “apparent KD of MS2 coat protein” value is reported as 211 nM.
In the case of “AAAACGUCAGGAUAUACAGAAGAGAUCACGAAAAAAAAAAAACAUGAGGAUCACCCAUGUAGAAGGGACAAAAA [Ex2 Malc#3]”, the “apparent KD of MS2 coat protein” value is reported as 136 nM.
In the case of “AAAAAGAUAGGAUAUACGAACAUGUCGAAAGACGUGAAGGGACAUGAGGAUCACCCAUGUAGAAGGGUUAAAAA [Mat - Exclusion 2 - JL mod - D88]”, the “apparent KD of MS2 coat protein” value is reported as 50 nM.
In the case of “AAAAAAGGAGGAUAUACAUGAGGAUCACCCAUGUAAAAAGGGAAAAAAAAAAAAAAAAGUAGAAGGCCUAAAAA [JR_Exc003_Sub1701]”, the “apparent KD of MS2 coat protein” value is reported as 65.1 nM.
In the case of “AAAAAUGGAGGAUAUACAUGAGGAUCACCCAUGUGUGGGCAUACUAUGUGGGCGUCAGGUAGAAGGCCAAAAAA [Gilly Gone Silly 25 - Jieux - Exclusion 3]”, the “apparent KD of MS2 coat protein” value is reported as 273 nM.
With “AAAGGACGAGGAUAUACAUGAGGAUCACCCAUGUAAAAAACAUAGUAAAAGAACUUGUGUAGAAGGCGUCCAAA [Meechl Ex3 2 R2 v7]” the “apparent KD of MS2 coat protein” value was 181 nM.
In the case of “AACAGUACAGGAUAUACAUGAGGAUCACCCAUGUAGAGAGAAUAAAACAAAAAUAAAUGUAGAAGGGUACUGGA [Moding Maslow revisited (73) 23]”, the “apparent KD of MS2 coat protein” value is reported as 26.1 nM.
For “AAGAAACAUGAGGAUCACCCAUGUGAGGAUAUCCAAAAGAAAAGAAAAGAAAGAAGAAGGAGAAGGCACAAAGG [Nikare]”, the “apparent KD of MS2 coat protein” value was 159 nM.
“AAAAAGUGAGGAUAUACGUUAAAAAAAAAAAAAAAAAAGCAGUAGAAGGCACAUGAGGAUCACCCAUGUAAAAA [Ex4 Malc#2]” was tested, and the “apparent KD of MS2 coat protein” value was 26 nM.
In the case of “ACGUAGAGAGGAUAUACGAACAUGUCAAAAGACGUGAAGGGACAUGAGGAUCACCCAUGUAGAAGGCUCUACGA [Mat - Exclusion 2 - JL mod - D8]”, the “apparent KD of MS2 coat protein” value is reported as 172 nM.
In the case of “AAAAAAUAAGGAUAUACAUUUCGGGAAAUUUUUACAAAAAAACAUGAGGAUCACCCAUGUAGAAGGUAUAAAAA [Exclusion 2]”, the “apparent KD of MS2 coat protein” value is reported as 17.7 nM.
For “AGAAAACAUGAGGAUCACCCAUGUCAGGAUAUACAAAAUAAAAUAAAAAUAAAAUAAAGUAGAAGGGACAAAGA [Mat - Same state - Mayanna Mod - D109]”, the “apparent KD of MS2 coat protein” value was 42.7 nM.
With “AAAAAGAGAGGAUAUACAUGAGGAUCACCCAUGUGACAUAAAAUAAAUAAAAUAAAGUGUAGAAGGCUCAAAAA [65%, Moding Exclusion3-cac2, 21]” the “apparent KD of MS2 coat protein” value was 104 nM.
With “AUAGUACAUGAGGAUCACCCAUGUCAGGAUAUUCGAAACGAAAAAAAAAAAAAGUGAAGGAGAAGGGACUAUAA [EX1 Malc#10]” the “apparent KD of MS2 coat protein” value was 21.1 nM.
For “GAAAAACAUGAGGAUCACCCAUGUAAGGAUAUGCUGAAAAACACGGAAAAACGUGACAGCAGAAGGUACAAAAG [Mat - Exclusion 1 - Eli mod - D94]”, the “apparent KD of MS2 coat protein” value was 40 nM.
“GAAAAACAUGAGGAUCACCCAUGUAAGGAUAUGCGAAAAUAAAAUAAAAUAAAAUAAAGCAGAAGGUACAAAAA [Mat - Exclusion 1 - Eli mod - D1]” was tested, and the “apparent KD of MS2 coat protein” value was 40.5 nM.

Reference: the supplement of paper PMC9170038
